From paper PMC3252255, “Heterologous overexpression of Glomerella cingulata FAD-dependent glucose dehydrogenase in Escherichia coli and Pichia pastoris” (Microbial Cell Factories, 2011)

T1: recGcGDH (recombinant Glomerella cingulata FAD-dependent glucose dehydrogenase) (Colletotrichum gloeosporioides, UniProt G8E4B5)
T1 construct: gene gdh; native stop codon in primer, no tag; glycosylated, 88-131 kDa on SDS-PAGE, 67 kDa deglycosylated
T1 sequence (G8E4B5 17-600): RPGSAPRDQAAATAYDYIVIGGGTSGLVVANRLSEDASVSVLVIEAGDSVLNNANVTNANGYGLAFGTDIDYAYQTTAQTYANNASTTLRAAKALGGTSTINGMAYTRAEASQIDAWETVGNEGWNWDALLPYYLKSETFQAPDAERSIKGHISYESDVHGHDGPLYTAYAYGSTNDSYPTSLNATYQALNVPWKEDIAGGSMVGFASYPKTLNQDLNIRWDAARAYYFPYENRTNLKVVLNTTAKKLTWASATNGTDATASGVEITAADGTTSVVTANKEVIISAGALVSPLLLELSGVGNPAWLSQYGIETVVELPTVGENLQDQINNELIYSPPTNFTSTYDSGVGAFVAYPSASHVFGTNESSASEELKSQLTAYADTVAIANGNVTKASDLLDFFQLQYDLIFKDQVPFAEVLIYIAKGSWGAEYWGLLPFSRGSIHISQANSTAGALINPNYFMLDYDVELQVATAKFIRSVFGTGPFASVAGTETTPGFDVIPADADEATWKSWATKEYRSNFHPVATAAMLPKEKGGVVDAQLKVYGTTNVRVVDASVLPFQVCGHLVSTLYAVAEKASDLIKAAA


How the values were obtained:
[1] = biological target: T1, recGcGDH (recombinant Glomerella cingulata FAD-dependent glucose dehydrogenase); assay: UV/Vis absorption spectrum of purified enzyme, oxidized and glucose-reduced; type: binding; conditions: 50 mM citrate pH 5.5, room temperature; FAD bound as purified
[2] = substrate: OC[C@H]1OC(O)[C@H](O)[C@@H](O)[C@@H]1O; assay: steady-state kinetics, spectrophotometric ferrocenium reduction; type: biochemical, Colletotrichum gloeosporioides; conditions: pH 5.5, 30°C, ferrocenium hexafluorophosphate as electron acceptor (20 μM in table, 200 μM in methods), also measured at pH 7.5
From the text: steady-state kinetics, spectrophotometric ferrocenium reduction on recGcGDH (recombinant Glomerella cingulata FAD-dependent glucose dehydrogenase)

| Molecule | UV/Vis absorption spectrum of purified enzyme, oxidized and glucose-reduced [1] | Km [2] | kcat [2] | kcat/Km [2] |
| --- | --- | --- | --- | --- |
| Cc1cc2nc3c(=O)[nH]c(=O)nc-3n(C[C@H](O)[C@H](O)[C@H](O)COP(=O)(O)OP(=O)(O)OC[C@H]3O[C@@H](n4cnc5c(N)ncnc54)[C@H](O)[C@@H]3O)c2cc1C [FAD] | typical flavoprotein spectrum shows the same characteristics as the spectrum of wild-type GcGDH | – | – | – |
| recGcGDH (recombinant Glomerella cingulata FAD-dependent glucose dehydrogenase) (Colletotrichum gloeosporioides) (protein, native stop codon in primer, no tag; glycosylated, 88-131 kDa on SDS-PAGE, 67 kDa deglycosylated) RPGSAPRDQAAATAYDYIVIGGGTSGLVVANRLSEDASVSVLVIEAGDSVLNNANVTNANGYGLAFGTDIDYAYQTTAQTYANNASTTLRAAKALGGTSTINGMAYTRAEASQIDAWETVGNEGWNWDALLPYYLKSETFQAPDAERSIKGHISYESDVHGHDGPLYTAYAYGSTNDSYPTSLNATYQALNVPWKEDIAGGSMVGFASYPKTLNQDLNIRWDAARAYYFPYENRTNLKVVLNTTAKKLTWASATNGTDATASGVEITAADGTTSVVTANKEVIISAGALVSPLLLELSGVGNPAWLSQYGIETVVELPTVGENLQDQINNELIYSPPTNFTSTYDSGVGAFVAYPSASHVFGTNESSASEELKSQLTAYADTVAIANGNVTKASDLLDFFQLQYDLIFKDQVPFAEVLIYIAKGSWGAEYWGLLPFSRGSIHISQANSTAGALINPNYFMLDYDVELQVATAKFIRSVFGTGPFASVAGTETTPGFDVIPADADEATWKSWATKEYRSNFHPVATAAMLPKEKGGVVDAQLKVYGTTNVRVVDASVLPFQVCGHLVSTLYAVAEKASDLIKAAA | – | 10.1 ± 0.4 mM | 179 ± 4 s⁻¹ | 17700 M⁻¹ s⁻¹ |
